For three compounds, specific activity, stoichiometry N and Kd results are on record in publication PMC12023411, “Quaternary stabilization of a GH2 β‐galactosidase from the psychrophile A. ikkensis, a flexible and unstable dimeric enzyme” (Protein Science : A Publication of the Protein Society, 2025).

In experiment [1] the target is T1, EcLac (Escherichia coli, UniProt P00722).
T1 construct: gene lacZ; commercial enzyme purchased from Sigma, lyophilized; homotetramer
As to the kind of experiment: ONPG hydrolysis, absorbance […] nm. The format is biochemical. Particulars: PBS pH 7.0, 0.1 mM MgCl2, 5 mM ONPG, 8 nM enzyme; temperature series.

Experiment [2] has as its target AiLac triple mutant (V648E, F702L, T742V) (Alkalilactibacillus ikkensis). As to the kind of experiment: mass photometry; TwoMP mass photometer, 21°C; 0.25 μL of a 1 mg/mL (8.4 μM) stock added to 19.75 μL buffer, about 100 nM final.
Experiment [3] shares this target. Nature of the experiment: flow-induced dispersion analysis (FIDA); 125 nM (WT) or 60 nM (TM) Alexa Fluor 488-labelled protein as indicator, pre-mixed with unlabelled protein of the same kind, 4 h at 4°C, buffer A; Rh fitted to a monomer-dimer model; constant of dimer to monomers.
Experiment [4] addresses GH2 β-galactosidase from Alkalilactibacillus ikkensis (AiLac), wild type (Alkalilactibacillus ikkensis). The description is as above.
Experiment [5] has the same target. As to the kind of experiment: SAXS; 0.40 mg/mL AiLac in 50 mM bis-tris propane, pH 7.0-8.0, 20°C; mass from I(0).
The target is the same in experiment [6]. As to the kind of experiment: SEC-MALS; Superdex 200 10/300 GL Increase, buffer A (PBS + 0.1 mM MgCl2, pH 7.0), room temperature, 0.5 mL/min, 50 μL of 1.5 mg/mL Ni-NTA purified protein loaded. (In general: Size exclusion chromatography separates by hydrodynamic size, large species first.)
Experiment [7] has the same target. Nature of the experiment: DSF (melting temperature against protein concentration); apparent; SEC-purified AiLac at 3.9 μg/mL to 4 mg/mL, 0.5°C/min, buffer A; tm fitted to the monomer-dimer equation (5); dimer to monomers.
Experiment [8] shares this target. Nature of the experiment: flow-induced dispersion analysis (FIDA); 125 nM (WT) or 60 nM (TM) Alexa Fluor 488-labelled protein as indicator, pre-mixed with unlabelled protein of the same kind, 4 h at 4°C, buffer A; Rh fitted to a monomer-dimer model; constant of dimer to monomers. This is another data set of the same source.
For experiment [9] the target is unchanged. Nature of the experiment: SAXS; second peak of the SEC purification, 1.15 mg/mL, buffer A, 20°C, 1800 s; mass from I(0).

Values joined by “and” are separate entries in the source; they are usually repeats but may differ in a detail not shown here. Equal values may be shown once.

T1 sequence (P00722 whole entry): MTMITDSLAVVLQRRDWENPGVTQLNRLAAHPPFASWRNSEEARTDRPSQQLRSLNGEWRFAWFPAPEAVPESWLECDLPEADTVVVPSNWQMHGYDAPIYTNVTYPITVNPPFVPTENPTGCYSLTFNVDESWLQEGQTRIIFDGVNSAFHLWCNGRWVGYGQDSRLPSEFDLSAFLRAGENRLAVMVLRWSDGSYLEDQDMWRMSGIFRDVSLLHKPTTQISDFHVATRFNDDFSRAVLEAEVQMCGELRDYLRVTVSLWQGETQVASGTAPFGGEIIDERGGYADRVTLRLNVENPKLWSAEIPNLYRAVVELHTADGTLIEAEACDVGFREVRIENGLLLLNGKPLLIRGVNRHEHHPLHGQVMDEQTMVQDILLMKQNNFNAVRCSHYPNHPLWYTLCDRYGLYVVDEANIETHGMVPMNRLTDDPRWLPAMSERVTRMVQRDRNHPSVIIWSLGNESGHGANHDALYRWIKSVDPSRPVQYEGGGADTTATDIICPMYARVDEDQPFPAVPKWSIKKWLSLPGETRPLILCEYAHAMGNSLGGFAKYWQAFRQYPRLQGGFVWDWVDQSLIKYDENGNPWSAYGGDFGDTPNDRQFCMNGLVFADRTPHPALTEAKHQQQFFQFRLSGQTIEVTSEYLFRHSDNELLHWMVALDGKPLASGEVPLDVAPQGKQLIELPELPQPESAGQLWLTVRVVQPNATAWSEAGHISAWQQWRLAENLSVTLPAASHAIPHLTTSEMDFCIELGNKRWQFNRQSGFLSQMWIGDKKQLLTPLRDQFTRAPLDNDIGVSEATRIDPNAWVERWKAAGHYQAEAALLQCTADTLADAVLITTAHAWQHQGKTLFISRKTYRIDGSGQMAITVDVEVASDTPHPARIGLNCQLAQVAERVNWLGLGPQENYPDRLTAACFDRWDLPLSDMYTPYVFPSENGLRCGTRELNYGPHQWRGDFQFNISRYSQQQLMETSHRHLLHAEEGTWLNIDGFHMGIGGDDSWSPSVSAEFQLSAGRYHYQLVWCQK

As to `O=[N+]([O-])c1ccccc1O[C@@H]1O[C@H](CO)[C@H](O)[C@H](O)[C@H]1O` [ONPG], in experiment [1], the specific activity entry was “Activity of the AiLac and EcLac (purchased from Sigma) was assessed by hydrolysis of ONPG”.

A word on the stoichiometry N: it is the number of molecules, sites or subunits per partner or assembly. With “AiLac triple mutant (V648E, F702L, T742V) (enzyme)”, the stoichiometry N in experiment [2] was 4; in experiment [3], 2 and 4.

For “GH2 β-galactosidase from Alkalilactibacillus ikkensis (AiLac), wild type (enzyme)”, the Kd in experiment [4] was 300 nM; in [7] it was 150 nM; in [8], 230 nM. The stoichiometry N is 2 in [5]; 4 and 2 in [6]; 2 in experiment [8]; 1.7 monomers in experiment [9].
